1 molecule from US20140256640A1 (PAION DEUTSCHLAND, published 2014) can be followed below.

The target of this experiment is human thrombin (human, UniProt P00734 328-622). Put plainly: equilibrium titration of thrombin (20 nM) with thrombomodulin in solution, read by the change in fluorescence of the thrombin inhibitor DAPA, fitted by nonlinear regression. On the procedure:
A solution containing thrombin (20 nM), thrombomodulin (1.54 μM), and DAPA (20 nM, dansylarginine N-3-(ethyl-1,5-pentanediyl)amide, a fluorescent, reversible thrombin inhibitor) in 0.02 M Tris-HCl, 0.15 M NaCl, 5.0 mM CaCl₂, 0.01% Tween 80, pH 7.4, was added in small successive aliquots to an otherwise identical solution that lacked thrombomodulin. The additions were performed in a cuvette fitted with a magnetic stirrer in the sample compartment of a Perkin-Elmer model LS50B spectrofluorimeter. Intensity values were continuously recorded with excitation and emission wavelengths of 280 and 545 nm, respectively. A 430-nm cut-off filter was used in the emission beam. The intensity of fluorescence, I, was assumed to be the sum of intensities from thrombin-DAPA (T·D) and thrombin-thrombomodulin-DAPA (T·TM·D). That is, I=i₁·[T·D]+i₂·[T·TM·D], where i₁ and i₂ are the coefficients of fluorescence for T·D and T·TM·D (since excitation was at 280 nm, the emission from free DAPA was negligible).
Therefore, with KTM defined as the dissociation constant for the thrombin-thrombomodulin interaction, [T][TM]=KTM[T·TM]; [T·D][TM]=KTM[T·TM·D]; and ([T]+[T·D])·[TM]=KTM([T·TM]+[T·TM·D]). The last expression is identical to f·[TM]=KTM·b. Since f=1−b and [TM]=[TM]₀−b[T]₀, where [TM]₀ is the total thrombomodulin concentration, the following equation is obtained: (1−b)([TM]₀−b·[T]₀)=KTM·b. […]

B1: Solulin (recombinant human soluble thrombomodulin) (receptor)
chain: EPQPGGSQCVEHDCFALYPGPATFLNASQICDGLRGHLMTVRSSVAADVISLLLNGDGGVGRRRLWIGLQLPPGCGDPKRLGPLRGFQWVTGDNNTSYSRWARLDLNGAPLCGPLCVAVSAAEATVPSEPIWEEQQCEVKADGFLCEFHFPATCRPLAVEPGAAAAAVSITYGTPFAARGADFQALPVGSSAAVAPLGLQLMCTAPPGAVQGHWAREAPGAWDCSVENGGCEHACNAIPGAPRCQCPAGAALQADGRSCTASATQSCNDLCEHFCVPNPDQPGSYSCMCETGYRLAADQHRCEDVDDCILEPSPCPQRCVNTQGGFECHCYPNYDLVDGECVEPVDPCFRANCEYQCQPLNQTSYLCVCAEGFAPIPHEPHRCQLFCNQTACPADCDPNTQASCECPEGYILDDGFICTDIDECENGGFCSGVCHNLPGTFECICGPDSALAGQIGTDCDSGKVDGGDSGAGEPPPSPTPGSTLTPP
notes: Obtained from PAION Deutschland GmbH; also called sTM; recombinant soluble thrombomodulin
Molecule B1 gave a Kd of 23 nM.

As a reminder, the Kd is the constant that tells how readily two partners part at equilibrium. Read a low Kd as tighter binding.
